Test results reported in US20050267016A1, “CD-10 activated prodrug compounds” (priority 2001, published 2005).

Experiments:
Porcine Kidney CD10 [1] = assay: Hydrolysis by purified CD10; type: biochemical; details: release of Leu-pNA vs Leu-Dox, 37° C., pH 7.4
Namalwa cells (CD10pos) = assay: cells; type: cell-based; details: ratio of IC50
Method: (§1) Suspension cells, BALL-1, Ramos and Namalwa cells were cultured in RPMI media containing 10% heat inactivated fetal calf serum (FCS). On the day of the study, the cells were collected, washed and resuspended at a concentration of 0.5×10^6 cells/ml in RPMI containing 10% FCS. 100 µl of cell suspension was added to 96 well plates. […] Finally 10 μl of a 100 μCi/ml ^3H-thymidine was added per well and the plates were incubated for 24 hours. The plates were harvested using a 96 well Harvester (Packard Instruments) and counted on a Packard Top Count counter. Four parameter logistic curves were fitted to the ^3H-thymidine incorporation as a function of drug molarity using Prism software to determine IC50 values.

[2] = mouse, in vivo, iv, 100 umol/kg
Method: (§4) Plasma was obtained from three individual animals in each group at 5 minutes, 1, 2, 4, or 6 hr.

Porcine Kidney CD10 [3] = assay: Hydrolysis by purified CD10; type: biochemical
Method: Reaction products were analyzed by HPLC with fluorescence detection. Rates were essentially linear over the incubation period. The observed product was Leu-doxorubicin.

[4] = test system: LNCaP (prostate carcinoma) cells; details: ratio of IC50
Method: (§2) Adherent cells, LNCaP (prostate carcinoma), HT-29 (colon carcinoma) and PC-3 (prostate carcinoma), were cultured in DMEM media containing 10% heat inactivated fetal calf serum (FCS). On the day of the study the cells were detached from the plate with a trypsin solution. The collected cells were washed and resuspended at a concentration of 0.25×10^6 cells/ml in DMEM containing 10% FCS. 100 μl of cell suspension were added to 96 well plates and the plates were incubated for 3 hours to allow the cells to adhere. […] The plates were then incubated for 24 hours, pulsed with 10 μl of a 100 μCi/ml ^3H-thymidine and incubated for an additional 24 hours (total incubation time 48 hours). The plates were harvested using a 96 well Harvester (Packard Instruments) and counted on a Packard Top Count Counter. Four parameter logistic curves were fitted to the ^3H-thymidine incorporation as a function of drug molarity using Prism software to determine IC50 values.
as §2, with “carcinoma), PC-3 (prostate” for “carcinoma), HT-29 (colon”, “and 22 RV1” for “and PC-3”, “with 1:0” for “with 10”
(§3) The effect of two known inhibitors of CD10 on prodrug activity in Ramos, LNCaP and Ball-1 cells was evaluated. The IC50 of Suc-βAla-Ile-Ala-Leu-Dox was determined in the presence of increasing concentration of the CD10 inhibitors, phosphoramidon and thiorphan.

[5] = mouse, in vivo, iv, 100 umol/kg; remark: listed apart in the source
Method: as §4

LNCaP xenografts = assay: LNCaP xenograft in SCID mice, Q6DX2, equitoxic comparison (Example 27); type: in vivo, C.B-17.SCID mice
Method: All compounds except Suc-βAla-Leu-Ala-Leu-Dox (three levels) were dosed at two levels with the goal to get a dose response for all compounds.
Knowing that the LNCaP tumor bearing nude mice have weight loss, we chose very conservative dose levels for each compound estimated to be well-tolerated equitoxic doses based on earlier studies and SD-MTD results. The high dose level for repeat dosing is usually 80% of their SD-MTD, and the low dose level is 80% of the high dose level. Accordingly, groups of ten male CD17.SCID mice, subcutaneously injected with 2.5 million LNCaP cells, were treated intravenously with the compounds at the levels described in Table 22 at six day intervals for a total of two identical doses (Q6DX2).
LNCaP tumors grew well in SCID mice, but the SCID mice with LNCaP tumor xenografts experienced severe weight loss, as 80% of control mice had more than 25% of weight loss by the end of the study. Nevertheless, the efficacy of different treatments at approximately equitoxic levels were compared based on the time it took for 50% of mice to reach toxic weight loss and the total numbers of mice with toxic weight loss at the end of study.

[6] = Pharmacokinetic/metabolism study, single IV bolus; details: mice
Method: as §4

[7] = Second single dose Maximum Tolerated Dose (SD-MTD) study, 49 days; details: mouse, in vivo
Method: In a second single dose Maximum Tolerated Dose (SD-MTD) study, groups of five normal ICR mice were administered intravenous bolus doses of Suc-βAla-Leu-Ala-Leu-Dox. The mice were observed daily for 49 days and body weights measured twice weekly.
In a second single dose Maximum Tolerated Dose (SD-MTD) study, groups of five normal ICR mice were administered intravenous bolus doses of Suc-Leu-Ala-Leu-Dox. The mice were observed daily for 49 days and body weights measured twice weekly.
In a second single dose Maximum Tolerated Dose (SD-MTD) study, groups of five normal ICR mice were administered intravenously bolus doses of Suc-Ile-Ala-Leu-Dox. The mice were observed daily for 49 days and body weights measured twice weekly.
In a second single dose Maximum Tolerated Dose (SD-MTD) study, groups of five normal ICR mice were administered intravenous bolus doses of Suc-βAla-Ile-Ala-Leu-Dox. The mice were observed daily for 49 days and body weights measured twice weekly.

Ramos cells (CD10pos) = assay: cells; details: ratio of IC50
Method: as §1, §3

| Compound | rate of cleavage relative to Suc-βAla-Leu-Ala-Leu-Dox (Porcine Kidney CD10 [1]) [times] | Ratio Ball-1:Namalwa (Namalwa cells (CD10pos)) | AUC(0-t) [2] [µM·h] | % hydrolysis/10 hr (Porcine Kidney CD10 [3]; 12.5 μg/mL, 37° C., pH 7.4, product Leu-doxorubicin) [% hydrolysis/10 hr] | Fraction hydrolyzed relative to standard (Porcine Kidney CD10 [3]; standard Suc-βAla-Leu-Ala-Leu-Dox) | Ratio PC-3:LNCaP [4] | Plasma AUC0-6 hr of AL-Dox or AG-Dox* [5] [µM·h] | Plasma AUC0-6 hr of L-Dox or G-Dox* [5] [µM·h] | Time: 50% Weight Loss (LNCaP xenografts; 58.3 mg/kg Q6DX2) [days] | Time: 100% Weight Loss (LNCaP xenografts; 58.3 mg/kg Q6DX2) [days] | Time: 50% Weight Loss (LNCaP xenografts; 70.5 mg/kg Q6DX2) [days] | Time: 100% Weight Loss (LNCaP xenografts; 70.5 mg/kg Q6DX2) [days] | Major Plasma Metabolite [6] | MTD [7] [mg/kg] | MTD ([7]; iv) [mg/kg] | Ratio Ball-1:Ramos (Ramos cells (CD10pos)) |
| --- | --- | --- | --- | --- | --- | --- | --- | --- | --- | --- | --- | --- | --- | --- | --- | --- |
| Suc-βAla-Leu-Ala-Leu-pNA | 590 |  |  |  |  |  |  |  |  |  |  |  |  |  |  |  |
| COc1cccc2c1C(=O)c1c(O)c3c(c(O)c1C2=O)C[C@@](O)(C(=O)CO)C[C@@H]3O[C@H]1C[C@H](NC(=O)[C@H](CC(C)C)NC(=O)[C@H](C)NC(=O)[C@H](CC(C)C)NC(=O)CCC(=O)O)[C@H](O)[C@H](C)O1 [Suc-Leu-Ala-Leu-Dox] |  | ~35 | 634 | 8.3 | 0.75 | 50 | 1.6 | 5.1 | 33 | 61 | 26 | 47 | Leu-Dox | 42 | 71 | ~30 |
